Assay results: patent publication US20240271152A1, “ENHANCING NITROGEN FIXATION WITH FUN” (Aarhus Universitet, published 2024)

Assays:
[1] = target: the molecule itself; test: confocal imaging of FUN-GFP in N. benthamiana leaves infiltrated with 500 µM ZnCl2
[2] = target: T1, FUN DNA-binding domain (bZIP) (Lotus japonicus); test: EMSA; 25 mM Tris pH 8.0, 80 mM NaCl, 35 mM KCl, 5 mM MgCl2, 37 C; conditions: chain copies: 2; label: 5' 6-FAM
T1 chain: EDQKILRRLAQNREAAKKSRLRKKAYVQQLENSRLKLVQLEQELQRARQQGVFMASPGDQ
Experimental: (§1) The purified FUN DNA binding domain (residues 178-237) was incubated with the probes at 37° C. for 60 min in EMSA buffer (25 mM Tris-HCl pH8.0, 80 mM NaCl, 35 mM KCl, 5 mM MgCl₂). After incubation, the reaction mixture was electrophoresed in 6% native polyacrylamide gel and then labelled DNA was detected with the Typhoon scanner (Fujifilm). Probes without 6-FAM-label served as competitors, while probes with mutation in the core binding sites (TGACG) served as mutants.
(§2) The promoter region of Nrt2.1 had four putative FBSs (P1-P4), the promoter region of Ho1 had two FBSs (P1 and P2), the promoter region of NAC094 had one FBS (P1), the promoter region of Nrt3.1 had three FBSs (P1, P2, and P3), and the promoter region of AS1 had one FBS (P1), all of which are illustrated in FIG. 2C. EMSA was conducted to test whether the FUN DNA-binding domain bound probes representing the FBSs.

[3] = target: T1, FUN DNA-binding domain (bZIP); test: EMSA; same buffer, 37 C; conditions: chain copies: 2; label: 5' 6-FAM
Experimental: as §1, §2

[4] = target: T1, FUN DNA-binding domain (bZIP); test: EMSA; same buffer, 37 C; printed reverse strand identical to forward; conditions: chain copies: 2; label: 5' 6-FAM
Experimental: as §1, §2

Binder | binding result [3] | also measured
FUN-GFP (FUN fused to green fluorescent protein) (other, Expressed inside plant cells, where it is nuclear (N. benthamiana leaves, Lotus hairy roots), not on the cell surface; also called pro35S:FUN-GFP; proUbi:FUN-GFP; not shown: eGFP fused to the FUN CDS) MQGFKTAQGNSHLYCHPSSFLLRGDDTSRNHTRFSDLGELQHSSNIFQQDDAVDLSSSNLPCSMYSVKSCNVVGGGSNMQYGTLNTNLGSAEIVSTGAGCLETGQQLMYHKEISMATMPMGNGHVENWADSSGMADNSQQTDDTSTDVDTDDKIQSNRDKRGTHMVVHSRDQTKSKPEDQKILRRLAQNREAAKKSRLRKKAYVQQLENSRLKLVQLEQELQRARQQGVFMASPGDQSHLAVGGANGASAFDMEYAHWVDEHQRLLTDLRSALNSQMGDNELHLLVDGVMAHYDELFRLKSLGAKADVFHMHSGLWKTPAERCFMWLGGFRSTELLKIVKNHLEPLTEPQLMGIDNLLRCAQQGEDALTQGMEALQQALVDTLSSTSLGPAGAGNVADYMGQMAIAMGKLATLESFLHSADLVKQQTLQQLQRILTTRQMARALLVRNDYISRLRALSSLWLARPRESSVMSSLPPSNIE | – | binding result [1]: binds
NRT2.1 P1 (dsDNA) DNA 1: ACAAGTAGCTTATGACGTACGACATATAGT DNA 2: ACTATATGTCGTACGTCATAAGCTACTTGT | – | binding result [2]: binds
HO1 P1 (dsDNA) DNA 1: TGTAATAACTTGTGAGCGAAGCAGGGATCC DNA 2: GGATCCCTGCTTCGCTCACAAGTTATTACA | binds | –
AS1 P1 (dsDNA) DNA 1: CATGTGGGCTTTTGACGAAGGTTCAAGTAG DNA 2: CTACTTGAACCTTCGTCAAAAGCCCACATG | – | binding result [4]: binds
NRT2.1 P4 (dsDNA) DNA 1: AGATTTAAGTTGACGTATTAATGACAATGA DNA 2: TCATTGTCATTAATACGTCAACTTAAATCT | binds | –
NRT3.1 P3 (dsDNA) DNA 1: AGACCTATTTTCTGACTCAATGTAGAGGGT DNA 2: ACCCTCTACATTGAGTCAGAAAATAGGTCT | binds | –
HO1 P2 (dsDNA) DNA 1: TCGAGCCTGCCTTGAGCTTGTCTTCTCCAT DNA 2: ATGGAGAAGACAAGCTCAAGGCAGGCTCGA | binds | –
NAC094 P1 (dsDNA) DNA 1: AGGAGAGGTTTGTGAGCATCAGCAAAGTGT DNA 2: ACACTTTGCTGATGCTCACAAACCTCTCCT | binds | –
NRT3.1 P2 (dsDNA) DNA 1: GGTTTTTATTTTTGACCTCAGAGGGGATCG DNA 2: CGATCCCCTCTGAGGTCAAAAATAAAAACC | binds | –
NRT3.1 P1 (dsDNA) DNA 1: CGTTCATTAATATGACATCAGAATTTCTCT DNA 2: AGAGAAATTCTGATGTCATATTAATGAACG | binds | –
